# Test results reported in IntAct's records for PubMed 10704439.
# B1: Spindle assembly checkpoint component MAD3 (Saccharomyces cerevisiae), P47074 (parent)
# chain: MKAYAKKRISYMPSSPSQNVINFEEIETQKENILPLKEGRSAAALSKAIHQPLVEINQVKSSFEQRLIDELPALSDPITLYLEYIKWLNNAYPQGGNSKQSGMLTLLERCLSHLKDLERYRNDVRFLKIWFWYIELFTRNSFMESRDIFMYMLRNGIGSELASFYEEFTNLLIQKEKFQYAVKILQLGIKNKARPNKVLEDRLNHLLRELGENNIQLGNEISMDSLESTVLGKTRSEFVNRLELANQNGTSSDVNLTKNNVFVDGEESDVELFETPNRGVYRDGWENFDLKAERNKENNLRISLLEANTNLGELKQHEMLSQKKRPYDEKLPIFRDSIGRSDPVYQMINTKDQKPEKIDCNFKLIYCEDEESKGGRLEFSLEEVLAISRNVYKRVRTNRKHPREANLGQEESANQKEAEAQSKRPKISRKALVSKSLTPSNQGRMFSGEEYINCPMTPKGRSTETSDIISAVKPRQLTPILEMRESNSFSQSKNSEIISDDDKSSSSFISYPPQR
# partner: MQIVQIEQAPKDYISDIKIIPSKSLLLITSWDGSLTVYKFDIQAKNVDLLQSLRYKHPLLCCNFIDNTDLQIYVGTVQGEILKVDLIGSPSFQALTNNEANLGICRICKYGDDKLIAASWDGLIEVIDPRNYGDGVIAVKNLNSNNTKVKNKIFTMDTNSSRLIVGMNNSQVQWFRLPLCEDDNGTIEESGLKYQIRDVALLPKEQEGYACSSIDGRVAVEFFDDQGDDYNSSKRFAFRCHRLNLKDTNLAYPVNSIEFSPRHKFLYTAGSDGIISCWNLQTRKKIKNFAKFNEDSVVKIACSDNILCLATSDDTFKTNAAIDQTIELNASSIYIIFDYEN
# Variants of: B1
# Conditions: with bub3_yeast BUB3, P26449
row,effect of a mutation on the interaction,Variant
1,decreasing interaction,E382K
